Experimental data taken from the supplement of paper PMC9112550, “Optimization of the antimicrobial peptide Bac7 by deep mutational scanning” (BMC Biology, 2022).

Test system: Escherichia coli TOP10
Experiment: shrunken log2 fold change of peptide-encoding DNA abundance (4.5 h post-induction vs induction); higher = less antimicrobial activity (less host growth inhibition)
Details: time post-induction: 4.5 h; library: site-saturation at positions 5, 18, 19, 20
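Also: peptides expressed intracellularly from a pBAD plasmid library in pooled LB shake-flask culture, induced with 0.3% L-arabinose, DNA abundance read by NGS, three biological replicates, DESeq2 with apeglm shrinkage.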

| Sequence | shrunken log2 fold change |
| --- | --- |
| RRIRHRPPRLPRPRPRPLMQPRP | -0.248 |
| RRIRHRPPRLPRPRPRPLNDPRP | 0.00159 |
| RRIRHRPPRLPRPRPRPLPGPRP | 0.103 |
| RRIRHRPPRLPRPRPRPLQAPRP | -0.279 |
| RRIRHRPPRLPRPRPRPLRSPRP | 0.549 |
| RRIRHRPPRLPRPRPRPLRYPRP | -0.388 |
| RRIRHRPPRLPRPRPRPLSCPRP | -0.287 |
| RRIRHRPPRLPRPRPRPLSHPRP | -0.00358 |
| RRIRHRPPRLPRPRPRPLTDPRP | -0.251 |
| RRIRHRPPRLPRPRPRPLVKPRP | -0.29 |
| RRIRHRPPRLPRPRPRPLWIPRP | -0.505 |
| RRIRHRPPRLPRPRPRPLWPPRP | 0.27 |
| RRIRHRPPRLPRPRPRPLYCPRP | -0.327 |
| RRIRHRPPRLPRPRPRPLYYPRP | -0.611 |
| RRIRHRPPRLPRPRPRPMAVPRP | 0.159 |
| RRIRHRPPRLPRPRPRPMCVPRP | -0.192 |
| RRIRHRPPRLPRPRPRPMDAPRP | 0.00875 |
| RRIRHRPPRLPRPRPRPMDGPRP | -0.0367 |
| RRIRHRPPRLPRPRPRPMFLPRP | -0.797 |
| RRIRHRPPRLPRPRPRPMFSPRP | -0.256 |
| RRIRHRPPRLPRPRPRPMGQPRP | -0.239 |
| RRIRHRPPRLPRPRPRPMGSPRP | -0.0537 |
| RRIRHRPPRLPRPRPRPMICPRP | -0.163 |
| RRIRHRPPRLPRPRPRPMKTPRP | -0.0218 |
| RRIRHRPPRLPRPRPRPMLYPRP | -1.49 |

| Sequence | shrunken log2 fold change |
| --- | --- |
| RRIRHRPPRLPRPRPRPMMMPRP | -0.0507 |
| RRIRHRPPRLPRPRPRPMMVPRP | -0.0274 |
| RRIRHRPPRLPRPRPRPMTNPRP | -0.19 |
| RRIRHRPPRLPRPRPRPMTVPRP | 0.055 |
| RRIRHRPPRLPRPRPRPMTYPRP | -0.19 |
| RRIRHRPPRLPRPRPRPMVNPRP | -0.469 |
| RRIRHRPPRLPRPRPRPMWCPRP | -0.187 |
| RRIRHRPPRLPRPRPRPNAPPRP | 0.0964 |
| RRIRHRPPRLPRPRPRPNDCPRP | 0.000576 |
| RRIRHRPPRLPRPRPRPNDKPRP | -0.526 |
| RRIRHRPPRLPRPRPRPNERPRP | 0.0404 |
| RRIRHRPPRLPRPRPRPNFSPRP | -0.415 |
| RRIRHRPPRLPRPRPRPNGEPRP | 0.164 |
| RRIRHRPPRLPRPRPRPNICPRP | -0.925 |
| RRIRHRPPRLPRPRPRPNIPPRP | -0.234 |
| RRIRHRPPRLPRPRPRPNKMPRP | -0.0582 |
| RRIRHRPPRLPRPRPRPNLWPRP | 0.173 |
| RRIRHRPPRLPRPRPRPNNPPRP | -0.874 |
| RRIRHRPPRLPRPRPRPNNYPRP | -0.857 |
| RRIRHRPPRLPRPRPRPNPLPRP | -0.0904 |
| RRIRHRPPRLPRPRPRPNQAPRP | 0.033 |
| RRIRHRPPRLPRPRPRPNQEPRP | -0.00942 |
| RRIRHRPPRLPRPRPRPNQPPRP | 0.00401 |
| RRIRHRPPRLPRPRPRPNRKPRP | 0.0857 |
| RRIRHRPPRLPRPRPRPNRTPRP | 0.031 |

| Sequence | shrunken log2 fold change |
| --- | --- |
| RRIRHRPPRLPRPRPRPNSHPRP | -1.09 |
| RRIRHRPPRLPRPRPRPNSSPRP | -0.203 |
| RRIRHRPPRLPRPRPRPNSWPRP | 0.254 |
| RRIRHRPPRLPRPRPRPNTCPRP | -0.53 |
| RRIRHRPPRLPRPRPRPNTQPRP | -0.248 |
| RRIRHRPPRLPRPRPRPNYKPRP | -0.603 |
| RRIRHRPPRLPRPRPRPPAVPRP | 0.373 |
| RRIRHRPPRLPRPRPRPPCNPRP | -0.221 |
| RRIRHRPPRLPRPRPRPPCWPRP | 0.142 |
| RRIRHRPPRLPRPRPRPPENPRP | 0.116 |
| RRIRHRPPRLPRPRPRPPFHPRP | -0.119 |
| RRIRHRPPRLPRPRPRPPFQPRP | 0.0923 |
| RRIRHRPPRLPRPRPRPPHLPRP | 0.0576 |
| RRIRHRPPRLPRPRPRPPHQPRP | -0.151 |
| RRIRHRPPRLPRPRPRPPIRPRP | 0.309 |
| RRIRHRPPRLPRPRPRPPKRPRP | -0.142 |
| RRIRHRPPRLPRPRPRPPKSPRP | 0.398 |
| RRIRHRPPRLPRPRPRPPKTPRP | 0.177 |
| RRIRHRPPRLPRPRPRPPLFPRP | 0.169 |
| RRIRHRPPRLPRPRPRPPMCPRP | -0.00483 |
| RRIRHRPPRLPRPRPRPPMSPRP | 0.0891 |
| RRIRHRPPRLPRPRPRPPMVPRP | 0.0642 |
| RRIRHRPPRLPRPRPRPPMYPRP | -0.739 |
| RRIRHRPPRLPRPRPRPPNFPRP | -0.00427 |
| RRIRHRPPRLPRPRPRPPNRPRP | -0.0966 |
